Laboratory results as given in paper PMC11602133.
Several values for one entry are separate records, joined by “and”; a condition that tells them apart may be missing. Identical values can stand only once.

Columns and labels:
[1] = target: AGAMOUS (AG), in vitro produced (Arabidopsis) (UniProt P17839); assay: native gel or EMSA; in vitro produced proteins (wheat germ TnT) mixed with a DY-682 labelled ~100 bp DNA probe containing a CArG-box (SAUR10 probe); protein complexes read from the shifted bands on DNA; anti-FLAG antibody added for supershift where FUL-FLAG was used
[2] = target: SUPPRESSOR OF OVEREXPRESSION OF CONSTANS 1 (SOC1), in vitro produced (Arabidopsis) (UniProt O64645); assay: as above

Chain of UniProt O64645 (O64645 whole entry): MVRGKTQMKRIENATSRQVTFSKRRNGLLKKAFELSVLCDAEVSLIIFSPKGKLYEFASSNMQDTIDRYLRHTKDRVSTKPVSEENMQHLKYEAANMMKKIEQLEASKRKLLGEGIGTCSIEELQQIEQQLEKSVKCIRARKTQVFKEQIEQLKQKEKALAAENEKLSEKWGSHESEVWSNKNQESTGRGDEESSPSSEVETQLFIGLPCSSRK
Chain of AGAMOUS (AG), in vitro produced, P17839 1-252 (natural protein; other documents disagree on this pair) (P17839 whole entry): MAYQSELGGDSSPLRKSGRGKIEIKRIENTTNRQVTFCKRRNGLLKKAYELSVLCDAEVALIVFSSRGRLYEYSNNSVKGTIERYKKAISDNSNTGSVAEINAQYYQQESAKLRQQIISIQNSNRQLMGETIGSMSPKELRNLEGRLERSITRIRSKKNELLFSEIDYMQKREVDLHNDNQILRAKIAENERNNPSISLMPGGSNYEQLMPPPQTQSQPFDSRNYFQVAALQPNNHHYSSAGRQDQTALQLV

Substance | stoichiometry N [1] | stoichiometry N [2]
AGAMOUS (AG), in vitro produced, P17839 1-252 (natural protein; other documents disagree on this pair) | 2 | –
SUPPRESSOR OF OVEREXPRESSION OF CONSTANS 1 (SOC1), in vitro produced (from UniProt O64645 1-214) (natural protein) | – | 2 and 4
